Assay results reported in publication PMC12525094.

Columns and labels:
[1] = biological target: Class 1 phytoglobin from Beta vulgaris (BvPgb 1.2), recombinant wild type (Beta vulgaris (sugar beet)); test: other fluorescence titration; isothermal spectral shift (SpS), Monolith X, dual emission ratio 670/650 nm; NHS-dye-labelled Pgb mixed with a sixteen-step dilution of GAPDH (highest 32 µM), equilibrated 15 min, in capillaries; PBS pH 7.4 with 0.05% Tween20; 25 °C
[2] = biological target: Class 1 phytoglobin from Beta vulgaris (BvPgb 1.2), cysteine-to-alanine variant C86A (Beta vulgaris (sugar beet)); test: as above
[3] = tested on: BvPgb 1.2 rWT (class 1 phytoglobin) (Beta vulgaris); test: isothermal spectral shift (Monolith X); conditions: PBS pH 7.4, 0.05% Tween20, 25 °C, 15 min equilibration, 16-step DNA dilution, top DNA stock 673 nM (i.e. 2.5 ng pET19b/µL; the two figures are …)
[4] = tested on: BvPgb 1.2 C86A (Beta vulgaris); test: isothermal spectral shift (Monolith X); conditions: PBS pH 7.4, 0.05% Tween20, 25 °C, 15 min equilibration, 16-step DNA dilution, top DNA stock 673 nM (i.e. 2.5 ng pET19b/µL; the two figures are …)
[5] = closed (hexacoordinate) phase of biphasic fit
[6] = open (pentacoordinate) phase of biphasic fit

Kd [1] [nM] | Kd [2] [nM] | Substance | Kd [3, 5] [nM] | Kd [3, 6] [nM] | Kd [4, 5] [nM] | Kd [4, 6] [nM]
260 | 120 | Glyceraldehyde-3-phosphate dehydrogenase (GAPDH), human (from UniProt P04406 1-335) (enzyme) |  |  |  | 
 |  | pET19b plasmid DNA | 0.1 | 120 | 0.23 | 50
